This test has as its target EGFR on A431 cells (human squamous cell carcinoma cells) (human) (UniProt P00533). Description: inhibition of the binding of Eu-EGF (10 nM) to A431 cells, time-resolved fluorescence; blocked ligand: Eu-EGF.

Take “anti-EGFR monoclonal antibody Ab-3 (Oncogene)”: the IC50 (read off the curve) worked out at 0.6 µg/mL.

Values taken from patent publication US20070032637A1.
